Measurements: patent US20170002075A1 (AbbVie / Abbott, published 2017)

T1: RAGE-derived peptide NtermR31 (human)
T1 construct: Synthetic peptide with a free carboxyl terminus
T1 peptide: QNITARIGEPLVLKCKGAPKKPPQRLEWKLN

T2: RAGE-derived peptide 1 (human)
T2 construct: Synthetic peptide with a free carboxyl terminus
T2 peptide: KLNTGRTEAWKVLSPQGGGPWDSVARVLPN

T3: RAGE-derived peptide 2 (human)
T3 construct: Synthetic peptide with a free carboxyl terminus
T3 peptide: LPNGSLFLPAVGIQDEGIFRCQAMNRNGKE

T4: RAGE-derived peptide 3 (human)
T4 construct: Synthetic peptide with a free carboxyl terminus
T4 peptide: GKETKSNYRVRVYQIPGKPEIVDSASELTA

T5: RAGE-derived peptide 4 (human)
T5 construct: Synthetic peptide with a free carboxyl terminus
T5 peptide: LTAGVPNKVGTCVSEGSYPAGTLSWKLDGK

T6: RAGE-derived peptide 5 (human)
T6 construct: Synthetic peptide with a free carboxyl terminus
T6 peptide: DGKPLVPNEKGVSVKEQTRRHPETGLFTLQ

T7: RAGE-derived peptide 6 (human)
T7 construct: Synthetic peptide with a free carboxyl terminus
T7 peptide: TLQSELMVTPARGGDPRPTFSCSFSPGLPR

T8: RAGE-derived peptide 7 (human)
T8 construct: Synthetic peptide with a free carboxyl terminus
T8 peptide: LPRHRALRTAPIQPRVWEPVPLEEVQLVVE

T9: RAGE-derived peptide 8 (human)
T9 construct: Synthetic peptide with a free carboxyl terminus
T9 peptide: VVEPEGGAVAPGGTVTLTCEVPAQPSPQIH

T10: RAGE-derived peptide 9 (human)
T10 construct: Synthetic peptide with a free carboxyl terminus
T10 peptide: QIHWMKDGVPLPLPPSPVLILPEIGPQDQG

T11: RAGE-derived peptide 10 (human)
T11 construct: Synthetic peptide with a free carboxyl terminus
T11 peptide: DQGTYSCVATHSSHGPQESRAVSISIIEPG

T12: E. coli RAGE Construct #5, 6His-(Thr)-[RAGE (130-234)] (human)
T12 construct: Expressed in E. coli with an N-terminal 6His-(Thr) tag, which is part of the entry; also called RAGE protein #5
T12 chain: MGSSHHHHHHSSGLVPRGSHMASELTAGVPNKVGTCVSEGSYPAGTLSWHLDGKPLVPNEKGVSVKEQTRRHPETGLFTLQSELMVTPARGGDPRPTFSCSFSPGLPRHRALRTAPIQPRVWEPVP

T13: E. coli RAGE Construct #7, 6His-(Thr)-[RAGE (235-336)] (human)
T13 construct: Expressed in E. coli with an N-terminal 6His-(Thr) tag, which is part of the entry; also called RAGE protein #7
T13 chain: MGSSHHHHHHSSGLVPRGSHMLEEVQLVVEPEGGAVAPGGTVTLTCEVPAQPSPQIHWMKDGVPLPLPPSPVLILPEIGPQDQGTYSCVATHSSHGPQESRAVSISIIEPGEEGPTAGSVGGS

B1: anti-human RAGE monoclonal antibody 4E5 (murine, hybridoma-derived) (antibody, V domains shown)
VH: QVQLQQSGAELVRPGTSVKVSCKASGYAFNNYLIEWIKQRPGQGLEWIGVINPGSGGTNHNEKFKVKATLTADKSSSTAYIQLSSLTSDDSAVYFCARSAGTARARFAYWGQGTLVTVSA
VL: DIQMTQSPSSLSASLGERVSLTCRASQDIGSSLNWLQQEPDGTIKRLIYATSSLDSGVPKRFSGSRSGSDYSLTISSLESEDFVDYYCLQYASFPFTFGSGTKLEIKR
notes: also called mAb4E5; ML37-4E5
B2: anti-human RAGE monoclonal antibody 11E6 (murine, hybridoma-derived) (antibody, V domains shown)
VH: QIQLVQSGPELKKPGETVKISCKASGYTFTNFGMNWVKQAPGKGLKWMGYINTNTGESIYSEEFKGRFAFSLETSASTAYLQINNLKNEDTATYFCARSRMVTAYGMDYWGQGTSVTVSS
VL: DIVMTQSQKFMSTSVGDRVSITCKASQNVGTAVAWYQQRPGQSPKLLIFSASNRYTGVPDRFTGSGSGTDFTLTLSNMQPEDLADYFCQQYSSYPLTFGVGTKLELKR
notes: also called mAb11E6; ML37-11E6
B3: anti-human RAGE monoclonal antibody 7F9 (murine, hybridoma-derived) (antibody, V domains shown)
VH: EEKLEESGGGLVQLGGSMKISCVASGFTLSNYWMDWVRQSPEKGLEWIAEIRLKSNYYSTHYAESVKGRFSISRDDSKGSVSLQMDNLTAEDTGIYFCARNAYWYFDVWGTGTTVTVSS
VL: DIVMTQSHKFMSTSVGDRVSATCKASQDVGTSVAWYQQKLGQSPKLLIYWTSTRHTGVPDRFTGSGSGTDFTLTISNVQSEDLADYFCQQYNNYPLTFGDGTKLELKR
notes: also called mAb7F9; MAb 7F9

Columns and labels:
[1] = biological target: T1, RAGE-derived peptide NtermR31; experiment: dot blot, non-denatured peptide on nitrocellulose
From the text: (§1) Dot blots were used to evaluate the binding of antibodies to peptides or fragments of RAGE in a non-denatured form. […] Peptides were ordered and synthesized by Biotrend according to standard methods (solid phases peptide synthesis on AMS 222 synthesizer using Fmoc/tBu-chemistry) containing a free carboxyl terminus. Peptides were HPLC-purified and analysis of every peptide for purity was done using RP-HPLC. […] The identities of peptides were verified by mass spectrometry.
(§2) Dots consisting of different amount of protein/peptide (30 ng, 10 ng, 3 ng, 1 ng, 0.3 ng, 0.1 ng, 0.03 ng, and 0.01 ng) in a volume of 1 μl in 1×PBS were spotted onto a Hybond-ECL Nitrocellulose Membrane (Amersham, RPN68D) in duplicates. Membranes were dried and unspecific binding was blocked by shaking the membranes for 1 hour at room temperature with Western Blocking reagent (Roche, no. 1921673). Blocking reagent was discarded and the membranes were incubated with antibodies in a concentration of 7.14 nM (shaking, 1 hour at room temperature). […] Blots were washed 4 times (each time 5 minute incubation with shaking at room temperature) with 1×PBS. Blots were then incubated with goat anti mouse IgG AP secondary antibody (Sigma no. A-7434) diluted 1:2000 in Western Blocking Reagent (Roche, no. 192173). Incubation for 1 hour was as before (shaking, room temperature). The filters were washed 4 times (5 minutes each) in 1×PBS. Development of signals was according to manufacturers instructions with NBT/BCIP substrate solution (Roche, no. 1697471). Color development was stopped after 10 minutes with bi-distilled water.

RAGE-derived peptide 1 = biological target: T2, RAGE-derived peptide 1; experiment: dot blot, non-denatured peptide on nitrocellulose
From the text: as §1, §2

RAGE-derived peptide 2 = biological target: T3, RAGE-derived peptide 2; experiment: dot blot, non-denatured peptide on nitrocellulose
From the text: as §1, §2

RAGE-derived peptide 3 = biological target: T4, RAGE-derived peptide 3; experiment: dot blot, non-denatured peptide on nitrocellulose
From the text: as §1, §2

RAGE-derived peptide 4 = biological target: T5, RAGE-derived peptide 4; experiment: dot blot, non-denatured peptide on nitrocellulose
From the text: as §1, §2

RAGE-derived peptide 5 = biological target: T6, RAGE-derived peptide 5; experiment: dot blot, non-denatured peptide on nitrocellulose
From the text: as §1, §2

RAGE-derived peptide 6 = biological target: T7, RAGE-derived peptide 6; experiment: dot blot, non-denatured peptide on nitrocellulose
From the text: as §1, §2

RAGE-derived peptide 7 = biological target: T8, RAGE-derived peptide 7; experiment: dot blot, non-denatured peptide on nitrocellulose
From the text: as §1, §2

RAGE-derived peptide 8 = biological target: T9, RAGE-derived peptide 8; experiment: dot blot, non-denatured peptide on nitrocellulose
From the text: as §1, §2

RAGE-derived peptide 9 = biological target: T10, RAGE-derived peptide 9; experiment: dot blot, non-denatured peptide on nitrocellulose
From the text: as §1, §2

RAGE-derived peptide 10 = biological target: T11, RAGE-derived peptide 10; experiment: dot blot, non-denatured peptide on nitrocellulose
From the text: as §1, §2

[2] = biological target: T12, E. coli RAGE Construct #5, …; experiment: ELISA: RAGE 130-234 (E. coli, D#1477) coated, mAb titrated, anti-mouse HRP conjugate, TMB
Procedure: (§3) Antigens (purified construct #1-7 proteins) were diluted into Coating Buffer [100 mM NaHCO₃, pH 8.2] to 1 μg/ml, and 100 μl of the resulting solution was then aliquoted into a 96-well Nunc Immuno Plate (Maxi-Sorb Surface, flat bottom, catalog #439454). The plate was sealed with sealing film and incubated at 4° C. overnight. The next day, the plate wells were each washed 3 times with 150 μL PBST buffer [Sigma PBS+0.05% Tween 20]. Then 300 ul of blocking solution (3% NFDM in PBST) was added to each well. The plate was incubated for 2 hours at room temperature and shaking at 100 rpm. After the incubation step, each well was again washed three times with 150 uL PBST. […] The plate was then sealed with sealing film and incubated for 2 hours at room temperature and shaking at 100 rpm. Next the antibody solution was drained out of the wells, and each well then washed three times with 200 ul PBST. To each well then 200 ul of a 1:5000 dilution (in PBST/1% NFDM) of conjugated secondary antibody [Donkey anti-mouse HRPO conjugate, Jackson Immuno Research, Catalog #715-035-150] was added. The plate was covered and allowed to incubate for 1 hour at room temperature while shaking at 100 rpm. Following this incubation, the solution was removed from the wells and each well was washed three times with 200 ul PBST. To each well 100 μL of HRPO substrate [3,3′,5′,5′-Tetramethylbenzidine Liquid Substrate (TMB), Supersensitive for ELISA, Sigma Catalog #T4444] solution was added and the plate incubated at room temperature for 10 minutes. Finally, 50 μL of 2M H₂SO₄ was added to each well to stop the reaction and the A₅₄₀ₙₘ of each well was measured using a microtiter plate reader.

[3] = biological target: T13, E. coli RAGE Construct #7, …; experiment: ELISA: RAGE 235-336 (E. coli, D#1479) coated, mAb titrated, anti-mouse HRP conjugate, TMB
Procedure: as §3

| Binder | binding result [1] | binding result (RAGE-derived peptide 1) | binding result (RAGE-derived peptide 2) | binding result (RAGE-derived peptide 3) | binding result (RAGE-derived peptide 4) | binding result (RAGE-derived peptide 5) | binding result (RAGE-derived peptide 6) | binding result (RAGE-derived peptide 7) | binding result (RAGE-derived peptide 8) | binding result (RAGE-derived peptide 9) | binding result (RAGE-derived peptide 10) | binding result [2] | EC50 (read off the curve) [3] [nM] | binding result [3] |
| --- | --- | --- | --- | --- | --- | --- | --- | --- | --- | --- | --- | --- | --- | --- |
| B1 | no binding | no binding | no binding | no binding | no binding | no binding | no binding | no binding | no binding | no binding | no binding | no binding | ~0.03 | – |
| B2 | no binding | no binding | no binding | no binding | no binding | no binding | no binding | no binding | no binding | no binding | no binding | no binding | ~0.04 | – |
| B3 | no binding | no binding | no binding | no binding | no binding | no binding | no binding | no binding | no binding | no binding | no binding | no binding | – | no binding |
